Test results as given in patent US20240132578A1.

Columns and labels:
Assay in all cases: cell-based or functional assay
[1] = biological target: HIV-1 93IN905 Env (HIV-1)
[2] = biological target: HIV-1 Env of isolate MGRM-AG-009 (pseudovirus) (HIV-1)
[3] = biological target: HIV-1 Env of isolate MGRM-F1-022 (pseudovirus) (HIV-1)
[4] = biological target: HIV-1 JR-CSF Env E466A (HIV-1 (isolate JR-CSF)) (UniProt P20871)
[5] = biological target: HIV-1 JR-CSF Env N392Q (HIV-1 (isolate JR-CSF)) (UniProt P20871)
HIV-1 JRCSF Env (HIV-1) = HIV-1 JRCSF Env (HIV-1) (UniProt P20871)
[6] = biological target: HIV-1 MGRM-AG-005 envelope protein (Env) on pseudovirus (HIV-1)
[7] = biological target: HIV-1 MGRM-C-026 Env (HIV-1)
[8] = biological target: HIV-1 MGRM-C-027 Env (HIV-1)
[9] = biological target: HIV-1 MGRM-D-018 Env (HIV-1)
[10] = biological target: HIV-1 envelope glycoprotein (Env) of isolate 92UG031, subtype A (HIV-1)
[11] = biological target: HIV-1 envelope glycoprotein (Env) of isolate 93IN905, on pseudovirus (HIV-1)
[12] = biological target: HIV-1 envelope glycoprotein (Env) of isolate APV_13, on pseudovirus (HIV-1)
[13] = biological target: HIV-1 envelope glycoprotein (Env) of isolate MG RM-A-012, subtype A (HIV-1)
[14] = biological target: HIV-1 Env of isolate MGRM-A-005 (pseudovirus) (HIV-1)
[15] = biological target: HIV-1 Env of isolate MGRM-A-009 (subtype A) (HIV-1)
[16] = biological target: HIV-1 Env of isolate MGRM-AG-002 (subtype AG) (HIV-1)
[17] = biological target: HIV-1 Env of isolate MGRM-AG-006 (subtype AG) (HIV-1)
[18] = biological target: HIV-1 Env of isolate MGRM-D-003 (pseudovirus) (HIV-1)
[19] = biological target: HIV-1 Env of isolate MGRM-D-008 (pseudovirus) (HIV-1)
[20] = biological target: HIV-1 Env of isolate MGRM-D-011 (pseudovirus) (HIV-1)
[21] = biological target: HIV-1 Env of isolate MGRM-F1-014 (HIV-1)
[22] = biological target: HIV-1 Env of isolate MGRM-F1-021 (HIV-1)
[23] = biological target: HIV-1 Env of isolate MGRM-F1-022 (HIV-1)
[24] = biological target: HIV-1 Env of pseudovirus isolate MGRM-C-022 (clade C) (HIV-1)
[25] = biological target: HIV-1 Env of pseudovirus isolate MGRM-C-024 (clade C) (HIV-1)
[26] = biological target: HIV-1 Env of pseudovirus isolate MGRM-C-025 (clade C) (HIV-1)
[27] = biological target: HIV-1 Env of pseudovirus isolate MGRM-C-027 (clade C) (HIV-1)
[28] = biological target: HIV-1 Env of isolate MGRM-G-019 (subtype G) (HIV-1)
[29] = biological target: HIV-1 Env of isolate 92RW020 (clade A pseudovirus) (HIV-1)
[30] = biological target: HIV-1 Env of isolate SC422661.8 (Acute), clade B (HIV-1)
[31] = biological target: HIV-1 MGRM-AE-002 Env (pseudovirus) (HIV-1)
[32] = biological target: HIV-1 MGRM-G-009 Env (pseudovirus) (HIV-1)
[33] = biological target: HIV-1 envelope glycoprotein (Env) of isolate 93IN905 (HIV-1)
[34] = biological target: HIV-1 envelope glycoprotein (Env) of isolate MGRM-C-019 (HIV-1)

Substance: 5123_A06 (PGT-125) (antibody)
- IC50, pseudovirus neutralization [1]: 0.0137 µg/mL
- IC50 (µg/mL), pseudovirus neutralization [2]: 0.026 µg/mL
- IC50 (µg/mL), pseudovirus neutralization [3]: > 50 µg/mL
- Fold IC50 increase relative to wild-type (pseudovirus neutralization) [4]: 1.6 fold
- Fold IC50 increase relative to wild-type (pseudovirus neutralization) [5]: 1.2 fold
- IC50, pseudovirus neutralization (HIV-1 JRCSF Env (HIV-1)): 0.006 µg/mL
- IC50 (ug/mL), pseudovirus neutralization [6]: > 10 µg/mL
- IC50, pseudovirus neutralization [7]: 0.0106 µg/mL
- IC50, pseudovirus neutralization [8]: > 10 µg/mL
- IC50, pseudovirus neutralization [9]: 0.0382 µg/mL
- IC50, pseudovirus neutralization [10]: > 50 µg/mL
- IC50, pseudovirus neutralization [11]: 0.009 µg/mL
- IC50, pseudovirus neutralization [12]: 0.007 µg/mL
- IC50, pseudovirus neutralization [13]: 0.177 µg/mL

Substance: 5329_C19 (PGT-136) (antibody)
- IC50 (µg/mL), pseudovirus neutralization [14]: > 50 µg/mL
- IC50, pseudovirus neutralization [15]: > 50 µg/mL
- IC50, pseudovirus neutralization [16]: > 50 µg/mL
- IC50, pseudovirus neutralization [17]: 29.1 µg/mL
- IC50 (µg/mL), pseudovirus neutralization [18]: > 50 µg/mL
- IC50 (µg/mL), pseudovirus neutralization [19]: > 50 µg/mL
- IC50 (µg/mL), pseudovirus neutralization [20]: > 50 µg/mL
- IC50 (µg/mL), pseudovirus neutralization [21]: > 50 µg/mL
- IC50 (µg/mL), pseudovirus neutralization [22]: > 50 µg/mL
- IC50 (µg/mL), pseudovirus neutralization [23]: 2.42 µg/mL
- IC50, pseudovirus neutralization [24]: > 50 µg/mL
- IC50, pseudovirus neutralization [25]: > 50 µg/mL
- IC50, pseudovirus neutralization [26]: > 50 µg/mL
- IC50, pseudovirus neutralization [27]: > 50 µg/mL
- IC50 (ug/mL), pseudovirus neutralization [6]: > 10 µg/mL

Substance: 5343_B08 (PGT-135) (antibody)
- IC50 (µg/mL), pseudovirus neutralization [14]: > 50 µg/mL
- IC50, pseudovirus neutralization [15]: > 50 µg/mL
- IC50, pseudovirus neutralization [16]: > 50 µg/mL
- IC50, pseudovirus neutralization [17]: 17.9 µg/mL
- IC50 (µg/mL), pseudovirus neutralization [18]: > 50 µg/mL
- IC50 (µg/mL), pseudovirus neutralization [19]: > 50 µg/mL
- IC50 (µg/mL), pseudovirus neutralization [20]: 23.5 µg/mL
- IC50 (µg/mL), pseudovirus neutralization [21]: > 50 µg/mL
- IC50 (µg/mL), pseudovirus neutralization [22]: 0.065 µg/mL
- IC50 (µg/mL), pseudovirus neutralization [23]: 0.964 µg/mL
- IC50, pseudovirus neutralization [24]: > 50 µg/mL
- IC50, pseudovirus neutralization [25]: > 50 µg/mL
- IC50, pseudovirus neutralization [26]: > 50 µg/mL
- IC50, pseudovirus neutralization [27]: > 50 µg/mL
- Fold IC50 increase relative to wild-type (pseudovirus neutralization) [4]: 0.5 fold
- Fold IC50 increase relative to wild-type (pseudovirus neutralization) [5]: > 250 fold
- IC50 (ug/mL), pseudovirus neutralization [6]: > 10 µg/mL

Substance: 4858_P08 (PGT-123) (antibody)
- IC50, pseudovirus neutralization [1]: 0.0071 µg/mL
- IC50 (µg/mL), pseudovirus neutralization [2]: 0.073 µg/mL
- IC50 (µg/mL), pseudovirus neutralization [3]: 0.075 µg/mL
- Fold IC50 increase relative to wild-type (pseudovirus neutralization) [4]: 0.6 fold
- Fold IC50 increase relative to wild-type (pseudovirus neutralization) [5]: 1 fold
- IC50, pseudovirus neutralization (HIV-1 JRCSF Env (HIV-1)): 0.0423 µg/mL
- IC50 (ug/mL), pseudovirus neutralization [6]: 0.104 µg/mL
- IC50, pseudovirus neutralization [7]: 0.0031 µg/mL
- IC50, pseudovirus neutralization [8]: 0.0169 µg/mL
- IC50, pseudovirus neutralization [9]: 0.0047 µg/mL
- IC50, pseudovirus neutralization [10]: > 50 µg/mL
- IC50, pseudovirus neutralization [11]: 0.004 µg/mL
- IC50, pseudovirus neutralization [12]: 0.138 µg/mL
- IC50, pseudovirus neutralization [13]: 0.192 µg/mL

Substance: PGV04 (antibody)
- IC50 (µg/mL), pseudovirus neutralization [2]: 0.148 µg/mL
- IC50 (µg/mL), pseudovirus neutralization [22]: 0.031 µg/mL
- IC50 (µg/mL), pseudovirus neutralization [23]: 0.072 µg/mL
- IC50 (µg/mL), pseudovirus neutralization [28]: 0.027 µg/mL

Substance: 5145_B14 (PGT-127) (antibody)
- IC50 (µg/mL), pseudovirus neutralization [2]: 0.059 µg/mL
- IC50 (µg/mL), pseudovirus neutralization [3]: > 50 µg/mL
- Fold IC50 increase relative to wild-type (pseudovirus neutralization) [4]: 0.9 fold
- Fold IC50 increase relative to wild-type (pseudovirus neutralization) [5]: 1.1 fold
- IC50, pseudovirus neutralization [10]: > 50 µg/mL
- IC50, pseudovirus neutralization [11]: 0.024 µg/mL
- IC50, pseudovirus neutralization [12]: 0.026 µg/mL
- IC50, pseudovirus neutralization [13]: 0.105 µg/mL

Substance: 1496_C09 (PG9) (TCN-109) (antibody)
- IC50, pseudovirus neutralization [1]: 0.048 µg/mL
- IC50 (µg/ml), pseudovirus neutralization [29]: 0.08 µg/mL
- IC50 (µg/mL), pseudovirus neutralization [28]: 14.6 µg/mL
- IC50 (µg/ml), pseudovirus neutralization [30]: 0.79 µg/mL
- IC50, pseudovirus neutralization (HIV-1 JRCSF Env (HIV-1)): 0.0048 µg/mL
- IC50 (µg/ml), pseudovirus neutralization [31]: 0.04 µg/mL
- IC50, pseudovirus neutralization [7]: 0.113 µg/mL
- IC50, pseudovirus neutralization [8]: 2.45 µg/mL
- IC50, pseudovirus neutralization [9]: 2.04 µg/mL
- IC50 (µg/ml), pseudovirus neutralization [32]: 4.9 µg/mL
- IC50 (µg/ml), pseudovirus neutralization [33]: 0.03 µg/mL
- IC50 (µg/ml), pseudovirus neutralization [34]: 0.01 µg/mL
